Data taken from US20070148669.

Assays:
[1] = target: T1, synthetic peptide Ac-SPLAQA-VRSSSR-NH2 (SEQ ID NO: 17) with the P′1 valine substituted by alanine
T1 chain: SPLAQAARSSSR

[2] = target: T2, synthetic peptide Ac-SPLAQA-VRSSSR-NH2 (SEQ ID NO: 17) with the P′1 valine substituted by glycine
T2 chain: SPLAQAGRSSSR

[3] = target: T3, synthetic peptide Ac-SPLAQA-VRSSSR-NH2 (SEQ ID NO: 17) with the P′1 valine substituted by serine
T3 chain: SPLAQASRSSSR

B1: tumor necrosis factor-alpha converting enzyme (TACE) catalytic domain (protein)
chain: RADPDPMKNTCKLLVVADHRFYRYMGRGEESTTTNYLIELIDRVDDIYRNTAWDNAGFKGYGIQIEQIRILKSPQEVKPGEKHYNMAKSYPNEEKDAWDVKMLLEQFSFDIAEEASKVCLAHLFTYQDFDMGTLGLAYVGSPRANSHGGVCPKAYYSPVGKKNIYLNSGLTSTKNYGKTILTKEADLVTTHELGHNFGAEHDPDGLAECAPNEDQGGKYVMYPIAVSGDHENNKMFSQCSKQSIYKTIESKAQECFQERSNKVGSHHHHHH
Q: Which results are given for B1?
A: catalytic activity of TACE (product formation quantified at 214 nm after HPLC separation; 100 nM TACE, 100 micromolar substrate) [1]: decreased activity of TACE to non-detectable levels; catalytic activity of TACE (product formation quantified at 214 nm after HPLC separation; 100 nM TACE, 100 micromolar substrate) [2]: decreased activity of TACE to non-detectable levels; catalytic activity of TACE (product formation quantified at 214 nm after HPLC separation; 100 nM TACE, 100 micromolar substrate) [3]: decreased activity of TACE to non-detectable levels
